Data set [1] deals with T1, in-vitro translated Hh protein (Drosophila melanogaster, UniProt Q02936).
T1 construct: The full length form of the hh protein (F) migrates with a mobility corresponding to a relative molecular mass of 46 kD; made in house; host or cells: cell-free: TNT coupled transcription-translation system (Promega)
T1 sequence (Q02936 1-471): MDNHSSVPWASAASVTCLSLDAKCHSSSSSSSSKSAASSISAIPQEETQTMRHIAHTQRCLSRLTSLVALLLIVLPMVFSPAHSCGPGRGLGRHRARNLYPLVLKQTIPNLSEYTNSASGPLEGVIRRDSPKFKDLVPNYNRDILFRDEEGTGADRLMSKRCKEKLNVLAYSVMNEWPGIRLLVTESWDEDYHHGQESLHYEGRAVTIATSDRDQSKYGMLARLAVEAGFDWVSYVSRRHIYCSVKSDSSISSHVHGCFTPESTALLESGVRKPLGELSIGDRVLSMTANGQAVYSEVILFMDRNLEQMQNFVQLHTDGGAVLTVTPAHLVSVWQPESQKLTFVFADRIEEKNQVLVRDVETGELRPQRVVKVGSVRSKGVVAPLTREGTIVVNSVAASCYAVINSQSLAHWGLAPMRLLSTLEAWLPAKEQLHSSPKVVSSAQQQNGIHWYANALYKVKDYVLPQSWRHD
The experiment in a line: Proteinase inhibitor studies on auto-proteolysis of in vitro translated Hh protein. In kind it is biochemical. The note with it: inhibitor added to translation reaction. The procedure: In some cases the effectiveness of an inhibitor was assayed by determining if addition of an inhibitor to a completed translation reaction will inhibit the self-processing that normally continues to occur.

A short description of data set [2]: Solubility and proteolytic stability of purified Hh carboxy-terminal fragments. In kind it is physicochemical. As to conditions: purified protein. The procedure:
Protein expression and purification: Drosophila melanogaster Hh protein in which most of the amino-terminai signaling domain and signal sequence have been replaced by a hexa-histidine tag (His6Hh-C25) was expressed as previously described (Porter et al., 1995). SeMet His6Hh-C25 was prepared by expression in E. coli strain B834 (DE3) pLysS, a methionine auxotroph, and growth in minimal media as previously described (Leahy et al., 1994). This His6-taggcd protein was purified on a Ni^++-NTA agarose column and autocleavage stimulated by addition of 50 mM DTT. After removal of the DTT by dialysis, the cleaved protein was passed over a Ni^++-NTA agarose column and the Hh carboxy-terminal domain, Hh-C25, collected in the column run through. Hh-C25 was subjected to limited proteolysis by overnight incubation with 1:500 (w:w) subtilisin (Boehringer Mannheim) at 4° C. A protease-stable fragment of approximately 17 kDa, Hh-C17, was identified by SDS-PAGE and purified by anion-exchange chromatography utilizing a Mono-Q column (Pharmacia). The amino- and carboxy-terminal residues of Hh-C17 were determined to be Cys-258 and Ser-408, respectively, by mass spectral analysis of cyanogen bromide-cleaved fragments. Mass spectral analysis was performed as previously described (Porter et al., 1996a).
Drosophila melanogaster Hh in which the signal sequence and most of the amino-terminal signaling domain have been replaced by a hexahistidine tag was expressed in E. coli as previously described (Porter et al., 1995). Following purification with Ni^++-NTA agarose, this protein cleaves itself in vitro in the presence of either DTT or cholesterol to liberate the 25 kDa Hh-C fragment (Hh-C25, residues Cys-258 to Asp-471). […] All residues absolutely conserved in Hh-C homologues (Porter et al., 1996a), including the nematode sequences, are contained in Hh-C17. To determine if Hh-C17 retained autoprocessing activity, a mutant version of His-tagged Hh-C containing a termination codon at residue position 409 (His6Hh-C17) was expressed and assayed for autocleavage in the presence of DTT and cholesterol.

Data set [3] relates to neural and cement gland marker gene expression. In words: Xenopus animal (blastula) cap explants / Keller sandwiches from RNA-injected embryos, RT-PCR of marker genes. It counts as cell-based. The procedure:
cDNAs encoding full-length Xenopus hedgehogs, or encoding amino terminal or carboxy terminal domains linked to secretory leader sequences were transcribed in vitro to yield translatable messenger RNA. The synthetic messenger RNAs, and control mRNAs, were microinjected into the animal poles of cleavage stage Xenopus embryos, which were allowed to develop to the blastula stage, at which time the animal cap explants were prepared from the upper one fourth of the embryo. These blastula cap explants were then cultured in vitro in physiological saline in the presence or absence of the transforming growth factor beta family member, recombinant human activin A. All explants were allowed to develop until control embryos had grown to neurula stage, or to tadpole stage. Importantly, blastula caps left untreated differentiate from ectoderm into atypical epidermis. Blastula caps treated with activin differentiate into mesodermal and neural cell types. Thus, the question was whether hedgehog, or its proteolytic derivatives, would change the differentiation of cells away from becoming epidermis, and into another cell type. A second question was whether hedgehog can work with activin to alter the normal response of the tissue to either factor by itself.
Explants were then extracted to yield mRNA by methods commonly used by those of skill in the art, which was used as template with reverse transcriptase to yield cDNA. The cDNA was then used as template with various sets of primers for PCR for specific genes, reverse-trahscriptase-polymerase chain reaction, or RT-PCR. […] Thus, the darker bands correspond to a greater level of the specific mRNA.
(A) Isolation of dorsal explants from injected embryos for the preparation of Keller sandwiches (Keller and Danilchik, 1988; Doniach, et al, 1992; redrawn from Doniach, 1993). (B) Keller sandwiches were made from uninjected (lanes 1 and 2) and X-bhh-injected (lanes 3 and 4) embroys, total RNA was isolated when control embryos reached stage 20, and RT-PCR was used to analyze the expression of XAG-1 and neural markers. XAG-1 is a cement gland marker, XANF-2 is an anterior pituitary marker, Otx-A is a forebrain marker, En-2 demarcates the midbrain-hindbrain boundary, Krox-20 marks rhombomeres 3 and 5 of the hindbrain and X/Hbox-6 is a spinal cord marker. N-CAM is a general neural marker whose expression is not restricted along the anteroposterior axis. […] Note that expression of XAG-1 and anterior neural markers is stimulated by X-bhh treatment, whereas expression of posterior neural markers is suppressed.

A further data set concerns auto-proteolysis. In words: In vitro translation of wild-type and mutant Hh proteins (mapping of auto-proteolysis). It counts as biochemical, Drosophila; zebrafish.

Take `CC(=O)N[C@@H](CC(C)C)C(=O)N[C@@H](CC(C)C)C(=O)N[C@H](C=O)CCCNC(=N)N` [leupeptin]: the “Inhibition of auto-proteolysis of in-vitro translated Hh protein” value (from here on “Inhibition”) in data set [1] is reported as “do not block”. Consider “Hh-C17: ~17 kDa subtilisin-stable fragment of Hh-C25, residues Cys-258 to Ser-408”, for which, in data set [2], the Solubility entry is recorded as “improved solubility” and the Stability to proteolysis entry was “protease-stable”. In the case of “a, anti-trypsin: proteinase inhibitor, probably α1-antitrypsin”, in data set [1], the “Inhibition” value was “do not block”. Same read-out and setting: under `CC(C)C[C@H](NC(=O)[C@H]1O[C@@H]1C(=O)O)C(=O)NCCCCN=C(N)N` [E-64] stands “do not block”. prolactin [reference compound]: the “Induction of pituitary gene XANF1B” value in data set [3] was “does not lead to this elevated level of pituitary gene”.

B1: noggin: independent neural inducer (protein, UniProt P49011 20-222, looked up)
Noggin: RIDQGGCQHYLHIRPAPSENLPLVDLIEHPDPIYDPKEKDLNETLLRTLMVGHFDPNFMATILPEERLGVEDLGELDLLLRQKPSGAMPAEIKGLEFYEGLQSKKHRLSKKLRRKLQMWLWSQTFCPVLYTWNDLGTRFWPRYVKVGSCYSKRSCSVPEGMVCKAAKSMHLTILRWRCQRRVQQKCAWITIQYPVISECKCSC
On to B1, for which, in data set [3], the “Induction of general neural gene NCAM” value was “induces the general neural gene, NCAM”; the “Induction of pituitary gene XANF1B” value was “able to induce pituitary gene and forebrain gene”.

B2: activin: recombinant human activin A, transforming growth factor beta family member (protein, UniProt P08476 311-426, looked up)
Inhibin beta A chain: GLECDGKVNICCKKQFFVSFKDIGWNDWIIAPSGYHANYCEGECPSHIAGTSGSSLSFHSTVINHYRMRGHSPFANLKSCCVPTKLRPMSMLYYDDGQNIIKKDIQNMIVEECGCS
B2: the “Induction of pituitary gene XANF1B” value in data set [3] is “also express the pituitary gene”.

B3: H273A: zebrafish twhh protein with H273A mutation (protein, UniProt Q90419 27-416, looked up, variant H273A)
Tiggy-winkle hedgehog protein: CGPGRGYGKRRHPKKLTPLAYKQFIPNVAEKTLGASGKYEGKITRNSERFKELIPNYNPDIIFKDEENTNADRLMTKRCKDKLNSLAISVMNHWPGVKLRVTEGWDEDGHHLEESLHYEGRAVDITTSDRDKSKYGMLSRLAVEAGFDWVYYESKAHIHCSVKAENSVAAKSGGCFPGSGTVTLGDGTRKPIKDLKVGDRVLAADEKGNVLISDFIMFIDHDPTTRRQFIVIETSEPFTKLTLTAAALVFVGNSSAASGITATFASNVKPGDTVLVWEDTCESLKSVTVKRIYTEEHEGSFAPVTAHGTIIVDQVLASCYAVIENHKWAHWAFAPVRLCHKLMTWLFPARESNVNFQEDGIHWYSNMLFHIGSWLLDRDSFHPLGILHLS
For the molecule B3, in the data set on auto-proteolysis, the “Auto-proteolysis (processing) of in vitro translated protein” value is reported as “blocked”.

B4: soybean trypsin inhibitor: proteinase inhibitor (protein, UniProt P01070 25-205, looked up)
Trypsin inhibitor A: DFVLDNEGNPLENGGTYYILSDITAFGGIRAAPTGNERCPLTVVQSRNELDKGIGTIISSPYRIRFIAEGHPLSLKFDSFAVIMLCVGIPTEWSVVEDLPEGPAVKIGENKDAMDGWFRLERVSDDEFNNYKLVFCPQQAEDDKCGDIGISIDHDDGTRRLVVSKNKPLVVQFQKLDKESL
In the case of B4, the “Inhibition” value in data set [1] is on record as “do not block”.

B5: H270A: zebrafish shh protein with H270A mutation (protein, UniProt Q92008 24-418, looked up, variant H270A)
Sonic hedgehog protein: CGPGRGYGRRRHPKKLTPLAYKQFIPNVAEKTLGASGRYEGKITRNSERFKELTPNYNPDIIFKDEENTGADRLMTQRCKDKLNSLAISVMNHWPGVKLRVTEGWDEDGHHFEESLHYEGRAVDITTSDRDKSKYGTLSRLAVEAGFDWVYYESKAHIHCSVKAENSVAAKSGGCFPGSALVSLQDGGQKAVKDLNPGDKVLAADSAGNLVFSDFIMFTDRDSTTRRVFYVIETQEPVEKITLTAAALLFVLDNSTEDLHTMTAAYASSVRAGQKVMVVDDSGQLKSVIVQRIYTEEQRGSFAPVTAHGTIVVDRILASCYAVIEDQGLAHLAFAPARLYYYVSSFLFPQNSSSRSNATLQQEGVHWYSRLLYQMGTWLLDSNMLHPLGMSVNSS
Consider B5, for which the “Auto-proteolysis (processing) of in vitro translated protein” value with auto-proteolysis was “blocked”.

B6: Hh-C25: 25 kDa Drosophila Hh-C fragment, residues Cys-258 to Asp-471 (protein)
chain: CFTPESTALLESGVRKPLGELSIGDRVLSMTANGQAVYSEVILFMDRNLEQMQNFVQLHTDGGAVLTVTPAHLVSVWQPESQKLTFVFADRIEEKNQVLVRDVETGELRPQRVVKVGSVRSKGVVAPLTREGTIVVNSVAASCYAVINSQSLAHWGLAPMRLLSTLEAWLPAKEQLHSSPKVVSSAQQQNGIHWYANALYKVKDYVLPQSWRHD
As for B6, in data set [2], the Solubility result is “poorly soluble in the absence of detergents” and the Stability to proteolysis result is given as “susceptible to further proteolytic breakdown when concentrated to 1 mg/ml or greater”.

For the origin of these results see patent US8362216B2, “Method of detection using antibodies that specifically bind hedgehog-derived polypeptides” (The Johns Hopkins University School of Medicine, priority 1994, dated 2013).
